This is an account of results in article PMC9305820.

Experiment [1] deals with Transforming growth factor-β1 (TGF-β1) dimer (UniProt P01137). The experiment in a line: dynamic light scattering.
The target is the same in experiment [2]. The experiment in a line: negative-stain electron microscopy.
For experiment [3], the target named is Fluorescently labeled TGF-β1. Description: MST.

Sequence of UniProt P01137 (P01137 279-390): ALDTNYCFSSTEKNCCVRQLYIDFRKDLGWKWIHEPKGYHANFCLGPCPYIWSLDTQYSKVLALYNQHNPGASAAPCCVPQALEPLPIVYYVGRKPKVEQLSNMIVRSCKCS

In experiment [1], “Bintrafusp alfa (from UniProt P37173 23-166)” gave a stoichiometry N (BA per TGF-β1 dimer) of 1. For the same substance, the stoichiometry N (TGF-β1 dimer per BA) in experiment [2] turned out to be 1. In experiment [3], this substance had a Kd of 0.055 nM.
